Assay results reported in US20090247540A1 (published 2009).

Columns and labels:
crystal structure = target: the molecule itself; assay: crystal structure
[1] = target: the molecule itself; assay: cell surface cross-linking with DSP, immunoprecipitation, SDS-PAGE

B1: EphA2 ligand-binding domain (receptor)
chain: EVVLLDFAAAGGELGWLTHPYGKGWDLMQNIMNDMPIYMYSVCNVMSGDQDNWLRTNWVYRGEAERIFIELKFTVRDCNSFPGGASSCKETFNLYYAESDLDYGTNFQKRLFTKIDTIAPDEITVSSDFEARHVKLNVEERSVGPLTRKGFYLAFQDIGACVALLSVRVYYKKC
notes: The crystallised domain; It forms dimers in the crystal; also called EphA2 LBD; EphA2-LBD
binding result (crystal structure): binds

B2: EphB2 on PC-3 cells (receptor, human, UniProt P29323 19-1055, looked up)
chain: VEETLMDSTTATAELGWMVHPPSGWEEVSGYDENMNTIRTYQVCNVFESSQNNWLRTKFIRRRGAHRIHVEMKFSVRDCSSIPSVPGSCKETFNLYYYEADFDSATKTFPNWMENPWVKVDTIAADESFSQVDLGGRVMKINTEVRSFGPVSRSGFYLAFQDYGGCMSLIAVRVFYRKCPRIIQNGAIFQETLSGAESTSLVAARGSCIANAEEVDVPIKLYCNGDGEWLVPIGRCMCKAGFEAVENGTVCRGCPSGTFKANQGDEACTHCPINSRTTSEGATNCVCRNGYYRADLDPLDMPCTTIPSAPQAVISSVNETSLMLEWTPPRDSGGREDLVYNIICKSCGSGRGACTRCGDNVQYAPRQLGLTEPRIYISDLLAHTQYTFEIQAVNGVTDQSPFSPQFASVNITTNQAAPSAVSIMHQVSRTVDSITLSWSQPDQPNGVILDYELQYYEKELSEYNATAIKSPTNTVTVQGLKAGAIYVFQVRARTVAGYGRYSGKMYFQTMTEAEYQTSIQEKLPLIIGSSAAGLVFLIAVVVIAIVCNRRGFERADSEYTDKLQHYTSGHMTPGMKIYIDPFTYEDPNEAVREFAKEIDISCVKIEQVIGAGEFGEVCSGHLKLPGKREIFVAIKTLKSGYTEKQRRDFLSEASIMGQFDHPNVIHLEGVVTKSTPVMIITEFMENGSLDSFLRQNDGQFTVIQLVGMLRGIAAGMKYLADMNYVHRDLAARNILVNSNLVCKVSDFGLSRFLEDDTSDPTYTSALGGKIPIRWTAPEAIQYRKFTSASDVWSYGIVMWEVMSYGERPYWDMTNQDVINAIEQDYRLPPPMDCPSALHQLMLDCWQKDRNHRPKFGQIVNTLDKMIRNPNSLKAMAPLSSGINLPLLDRTIPDYTSFNTVDEWLEAIKMGQYKESFANAGFTSFDVVSQMMMEDILRVGVTLAGHQKKILNSIQVMRAQMNQIQSVEGQPLARRPRATGRTKRCQPRDVTKKTCNSNDGKKKGMGKKKTDPGRGREIQGIFFKEDSHKESNDCSCGG
notes: whole, on cells
binding result [1]: no binding
